Measurements from article PMC10397247.

Legend:
Experiment in all cases: two-hybrid library CCNG1;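 note: natural log of median RNA to DNA barcode read ratio; higher means stronger binding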
4H338-bA = target: T1, 4H338-bA
T1 chain: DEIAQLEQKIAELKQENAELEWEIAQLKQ

4H454-bA = target: T2, 4H454-bA
T2 chain: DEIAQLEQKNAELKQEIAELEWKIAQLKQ

4H331-bA = target: T3, 4H331-bA
T3 chain: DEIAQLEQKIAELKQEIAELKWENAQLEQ

4H3112-bA = target: T4, 4H3112-bA
T4 chain: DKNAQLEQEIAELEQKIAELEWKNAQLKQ

4H3855-bA = target: T5, 4H3855-bA
T5 chain: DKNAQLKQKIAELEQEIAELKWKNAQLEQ

4H797-bA = target: T6, 4H797-bA
T6 chain: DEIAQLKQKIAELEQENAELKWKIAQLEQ

4H953-bA = target: T7, 4H953-bA
T7 chain: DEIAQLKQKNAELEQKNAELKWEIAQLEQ

4H4001-bA = target: T8, 4H4001-bA
T8 chain: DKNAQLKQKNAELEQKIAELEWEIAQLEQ

4H2618-bA = target: T9, 4H2618-bA
T9 chain: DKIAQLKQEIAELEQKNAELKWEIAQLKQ

4H2442-bA = target: T10, 4H2442-bA
T10 chain: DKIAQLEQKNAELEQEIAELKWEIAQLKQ

4H883-bA = target: T11, 4H883-bA
T11 chain: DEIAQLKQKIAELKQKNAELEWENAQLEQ

4H918-bA = target: T12, 4H918-bA
T12 chain: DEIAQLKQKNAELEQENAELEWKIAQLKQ

4H3354-bA = target: T13, 4H3354-bA
T13 chain: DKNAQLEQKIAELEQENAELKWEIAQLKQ

4H607-bA = target: T14, 4H607-bA
T14 chain: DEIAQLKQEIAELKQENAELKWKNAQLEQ

4H568-bA = target: T15, 4H568-bA
T15 chain: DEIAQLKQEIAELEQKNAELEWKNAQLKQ

4H908-bA = target: T16, 4H908-bA
T16 chain: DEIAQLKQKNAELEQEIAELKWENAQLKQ

4H3427-bA = target: T17, 4H3427-bA
T17 chain: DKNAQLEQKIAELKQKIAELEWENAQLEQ

4H754-bA = target: T18, 4H754-bA
T18 chain: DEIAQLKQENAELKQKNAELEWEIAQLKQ

4H72-bA = target: T19, 4H72-bA
T19 chain: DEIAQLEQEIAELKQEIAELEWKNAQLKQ

4H967-bA = target: T20, 4H967-bA
T20 chain: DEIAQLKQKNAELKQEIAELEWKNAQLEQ

4H2729-bA = target: T21, 4H2729-bA
T21 chain: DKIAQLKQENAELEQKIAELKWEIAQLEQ

4H687-bA = target: T22, 4H687-bA
T22 chain: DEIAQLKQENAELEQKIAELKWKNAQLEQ

4H2667-bA = target: T23, 4H2667-bA
T23 chain: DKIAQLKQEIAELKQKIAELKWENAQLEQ

4H2576-bA = target: T24, 4H2576-bA
T24 chain: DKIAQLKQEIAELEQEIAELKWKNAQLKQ

4H3185-bA = target: T25, 4H3185-bA
T25 chain: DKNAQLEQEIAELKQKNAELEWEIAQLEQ

4H3497-bA = target: T26, 4H3497-bA
T26 chain: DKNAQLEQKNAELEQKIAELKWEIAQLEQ

4H3782-bA = target: T27, 4H3782-bA
T27 chain: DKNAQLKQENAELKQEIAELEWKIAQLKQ

4H717-bA = target: T28, 4H717-bA
T28 chain: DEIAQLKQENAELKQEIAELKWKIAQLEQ

O13-bH = target: T29, O13-bH
T29 chain: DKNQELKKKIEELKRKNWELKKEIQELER

4H607-bN = target: T30, 4H607-bN
T30 chain: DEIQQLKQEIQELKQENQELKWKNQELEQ

4H462-bA = target: T31, 4H462-bA
T31 chain: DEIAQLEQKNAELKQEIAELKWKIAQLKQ

4H3189-bA = target: T32, 4H3189-bA
T32 chain: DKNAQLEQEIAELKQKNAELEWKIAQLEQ

4H370-bA = target: T33, 4H370-bA
T33 chain: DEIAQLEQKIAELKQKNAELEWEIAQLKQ

4H1845-bA = target: T34, 4H1845-bA
T34 chain: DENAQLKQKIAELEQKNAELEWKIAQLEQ

4H2697-bA = target: T35, 4H2697-bA
T35 chain: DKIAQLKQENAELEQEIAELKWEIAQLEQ

4H3606-bA = target: T36, 4H3606-bA
T36 chain: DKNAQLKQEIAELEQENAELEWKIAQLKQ

4H2610-bA = target: T37, 4H2610-bA
T37 chain: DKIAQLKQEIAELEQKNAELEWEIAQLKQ

4H3010-bN = target: T38, 4H3010-bN
T38 chain: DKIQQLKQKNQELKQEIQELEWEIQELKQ

4H3843-bA = target: T39, 4H3843-bA
T39 chain: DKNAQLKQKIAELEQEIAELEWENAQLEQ

**Q.** DKIAQLEQKNAELEQEIAELKWEIAQLKQ [4H2442-bA] was tested. Which interaction score (4H338-bA) did it give?
**A.** -0.0859

**Q.** What about the interaction score (4H454-bA) of the same binder?
**A.** 0.831

**Q.** And the interaction score (4H331-bA)?
**A.** -1.21

**Q.** What about the interaction score (4H3112-bA) of the same binder?
**A.** -0.0125

**Q.** What about the interaction score (4H3855-bA) of the same binder?
**A.** -0.595

**Q.** What about the interaction score (4H797-bA) of the same binder?
**A.** -1.24

**Q.** What about the interaction score (4H953-bA) of the same binder?
**A.** -1.68

**Q.** And the interaction score (4H4001-bA)?
**A.** 0.5

**Q.** And the interaction score (4H2618-bA)?
**A.** 0.238

**Q.** What about the interaction score (4H2442-bA) of the same binder?
**A.** 1.33

**Q.** What about the interaction score (4H883-bA) of the same binder?
**A.** -1.15

**Q.** And the interaction score (4H918-bA)?
**A.** -1.46

**Q.** And the interaction score (4H3354-bA)?
**A.** -0.829

**Q.** And the interaction score (4H607-bA)?
**A.** -1.4

**Q.** What about the interaction score (4H568-bA) of the same binder?
**A.** -1.89

**Q.** And the interaction score (4H908-bA)?
**A.** -0.745

**Q.** And the interaction score (4H3427-bA)?
**A.** 0.0308

**Q.** And the interaction score (4H754-bA)?
**A.** 0.0444

**Q.** What about the interaction score (4H72-bA) of the same binder?
**A.** -1.46

**Q.** And the interaction score (4H967-bA)?
**A.** -1.64

**Q.** What about the interaction score (4H2729-bA) of the same binder?
**A.** 1.52

**Q.** What about the interaction score (4H687-bA) of the same binder?
**A.** -0.225

**Q.** What about the interaction score (4H2667-bA) of the same binder?
**A.** -0.365

**Q.** What about the interaction score (4H2576-bA) of the same binder?
**A.** -0.202

**Q.** And the interaction score (4H3185-bA)?
**A.** -0.212

**Q.** And the interaction score (4H3497-bA)?
**A.** 1.63

**Q.** And the interaction score (4H3782-bA)?
**A.** -1.13

**Q.** What about the interaction score (4H717-bA) of the same binder?
**A.** -0.902

**Q.** Which interaction score (4H797-bA) does the source give for DEIAQLKQENAELEQKIAELKWKNAQLEQ [4H687-bA] here?
**A.** -0.624

**Q.** What about the interaction score (4H953-bA) of the same binder?
**A.** -1.51

**Q.** What about the interaction score (4H883-bA) of the same binder?
**A.** -1.57

**Q.** And the interaction score (4H918-bA)?
**A.** -0.947

**Q.** And the interaction score (4H908-bA)?
**A.** -0.749

**Q.** And the interaction score (4H754-bA)?
**A.** -0.491

**Q.** What about the interaction score (4H72-bA) of the same binder?
**A.** -0.595

**Q.** And the interaction score (4H967-bA)?
**A.** 1.07

**Q.** What about the interaction score (4H687-bA) of the same binder?
**A.** -1.03

**Q.** What about the interaction score (O13-bH) of the same binder?
**A.** 1.07

**Q.** And the interaction score (4H717-bA)?
**A.** -1.32

**Q.** What does the source list for DENAQLKQKIAELEQKNAELEWKIAQLEQ [4H1845-bA]?
**A.** interaction score (4H338-bA): -1.75; interaction score (4H607-bN): -0.945; interaction score (4H454-bA): -0.0982; interaction score (4H331-bA): -0.344; interaction score (4H3112-bA): -0.795; interaction score (4H3855-bA): -1.1; interaction score (4H462-bA): -0.986; interaction score (4H797-bA): -0.424; interaction score (4H953-bA): -1.23; interaction score (4H3189-bA): -0.547; interaction score (4H4001-bA): -0.341; interaction score (4H2618-bA): -0.329; interaction score (4H2442-bA): -0.649; interaction score (4H370-bA): -0.74; interaction score (4H883-bA): -0.795; interaction score (4H918-bA): -0.752; interaction score (4H3354-bA): -0.823; interaction score (4H607-bA): -1.7; interaction score (4H568-bA): -0.306; interaction score (4H908-bA): -1.42; interaction score (4H3427-bA): -0.783; interaction score (4H754-bA): -0.405; interaction score (4H72-bA): -0.517; interaction score (4H967-bA): -0.617; interaction score (4H1845-bA): 0.564; interaction score (4H2729-bA): -0.636; interaction score (4H687-bA): -0.612; interaction score (4H2667-bA): 0.247; interaction score (4H2576-bA): 0.69; interaction score (4H3185-bA): -0.124; interaction score (4H3782-bA): -0.678; interaction score (4H2697-bA): -0.601; interaction score (4H3606-bA): -1.46; interaction score (4H2610-bA): -0.596; interaction score (4H3010-bN): 0.0715; interaction score (4H3843-bA): -0.572; interaction score (4H717-bA): -0.827
